Test results: patent US20230145060A1
Read-outs that look alike come from different tables or passages of the source.

Experiments:
Experiment in all cases: cell-based or functional assay
[1] = biological target: HIV-1 Env of pseudovirus T257 (HIV-1)
[2] = biological target: HIV-1 Env of pseudovirus PV0 (HIV-1)
[3] = biological target: HIV-1 Env of pseudovirus THRO (HIV-1)
[4] = biological target: HIV-1 Env of pseudovirus 3817 (HIV-1)
[5] = biological target: HIV-1 Env of pseudovirus ZM197 (HIV-1)
[6] = biological target: HIV-1 Env of pseudovirus pCNE8 (HIV-1)
[7] = biological target: HIV-1 Env of pseudovirus X2088 (HIV-1)
[8] = biological target: HIV-1 Env of pseudovirus BG505 (HIV-1)
[9] = biological target: HIV-1 Env of pseudovirus SF162 (HIV-1) (UniProt P19550)
[10] = biological target: HIV-1 Env of pseudovirus 278 (HIV-1)
[11] = biological target: HIV-1 Env of pseudovirus Du422 (HIV-1)
[12] = biological target: HIV-1 Env of pseudovirus JRCSF (HIV-1) (UniProt P20871)
[13] = biological target: HIV-1 Env of pseudovirus X1632 (HIV-1)
[14] = biological target: HIV-1 Env of pseudovirus ZM106 (HIV-1)
[15] = biological target: HIV-1 Env of pseudovirus T257 (HIV-1); remark: listed apart in the source
[16] = biological target: HIV-1 Env of pseudovirus PV0 (HIV-1); remark: listed apart in the source
[17] = biological target: HIV-1 Env of pseudovirus THRO (HIV-1); remark: listed apart in the source
[18] = biological target: HIV-1 Env of pseudovirus 3817 (HIV-1); remark: listed apart in the source
[19] = biological target: HIV-1 Env of pseudovirus ZM197 (HIV-1); remark: listed apart in the source
[20] = biological target: HIV-1 Env of pseudovirus pCNE8 (HIV-1); remark: listed apart in the source
[21] = biological target: HIV-1 Env of pseudovirus X2088 (HIV-1); remark: listed apart in the source
[22] = biological target: HIV-1 Env of pseudovirus BG505 (HIV-1); remark: listed apart in the source
[23] = biological target: HIV-1 Env of pseudovirus SF162 (HIV-1) (UniProt P19550); remark: listed apart in the source
[24] = biological target: HIV-1 Env of pseudovirus 278 (HIV-1); remark: listed apart in the source
[25] = biological target: HIV-1 Env of pseudovirus Du422 (HIV-1); remark: listed apart in the source
[26] = biological target: HIV-1 Env of pseudovirus JRCSF (HIV-1) (UniProt P20871); remark: listed apart in the source
[27] = biological target: HIV-1 Env of pseudovirus X1632 (HIV-1); remark: listed apart in the source
[28] = biological target: HIV-1 Env of pseudovirus ZM106 (HIV-1); remark: listed apart in the source

| Substance | IC50, neutralization of T257 PsV [1] [µg/mL] | IC50, neutralization of PV0 PsV [2] [µg/mL] | IC50, neutralization of THRO PsV [3] [µg/mL] | IC50, neutralization of 3817 PsV [4] [µg/mL] | IC50, neutralization of ZM197 PsV [5] [µg/mL] | IC50, neutralization of pCNE8 PsV [6] [µg/mL] | IC50, neutralization of X2088 PsV [7] [µg/mL] | IC50, neutralization of BG505 PsV [8] [µg/mL] | IC50, neutralization of SF162 PsV [9] [µg/mL] | IC50, neutralization of 278 PsV [10] [µg/mL] | IC50, neutralization of Du422 PsV [11] [µg/mL] | IC50, neutralization of JRCSF PsV [12] [µg/mL] | IC50, neutralization of X1632 PsV [13] [µg/mL] | IC50, neutralization of ZM106 PsV [14] [µg/mL] | IC50, neutralization of T257 PsV [15] [nM] | IC50, neutralization of PV0 PsV [16] [nM] | IC50, neutralization of THRO PsV [17] [nM] | IC50, neutralization of 3817 PsV [18] [nM] | IC50, neutralization of ZM197 PsV [19] [nM] | IC50, neutralization of pCNE8 PsV [20] [nM] | other results |
| --- | --- | --- | --- | --- | --- | --- | --- | --- | --- | --- | --- | --- | --- | --- | --- | --- | --- | --- | --- | --- | --- |
| N6/PGDM1400x10E8v4 trispecific antibody | 0.028 | 1.3 | 0.31 | 1.2 | 0.073 | 0.024 | 0.56 | 0.059 | 0.33 | 1.2 | 0.19 | 0.026 | 0.03 | 0.017 | 0.16 | 7.2 | 1.7 | 6.7 | 0.42 | 0.14 | IC50, neutralization of X2088 PsV [21]: 3.2 nM; IC50, neutralization of BG505 PsV [22]: 0.34 nM; IC50, neutralization of SF162 PsV [23]: 1.9 nM; IC50, neutralization of 278 PsV [24]: 7.1 nM; IC50, neutralization of Du422 PsV [25]: 1.1 nM; IC50, neutralization of JRCSF PsV [26]: 0.15 nM; IC50, neutralization of X1632 PsV [27]: 0.17 nM; IC50, neutralization of ZM106 PsV [28]: 0.1 nM |
| 32-N multabody (PGDM1400 scFab-human apoferritin : scFc-N-Ferritin : N49P7 scFab-C-Ferritin : 10E8v4 scFab-C-Ferritin, 4:2:1:1) | 0.0037 | 0.33 | 0.058 | 9.1 | 0.0096 | 0.0032 | 5.2 | 0.0045 | 1.3 | 0.009 | 2.5 | 0.0054 | 0.0045 | 0.0089 | 0.0016 | 0.15 | 0.025 | 3.9 | 0.0042 | 0.0014 | IC50, neutralization of X2088 PsV [21]: 2.3 nM; IC50, neutralization of BG505 PsV [22]: 0.0019 nM; IC50, neutralization of SF162 PsV [23]: 0.58 nM; IC50, neutralization of 278 PsV [24]: 0.0039 nM; IC50, neutralization of Du422 PsV [25]: 1.08 nM; IC50, neutralization of JRCSF PsV [26]: 0.0023 nM; IC50, neutralization of X1632 PsV [27]: 0.002 nM; IC50, neutralization of ZM106 PsV [28]: 0.0039 nM |
| PGDM1400 IgG (antibody) | 0.012 | 1.3 | 0.09 | > 50 | 0.11 | 0.0027 | > 50 | 0.0032 | > 50 | 0.16 | 6 | 0.0074 | 0.018 | 0.013 | 0.08 | 8.4 | 0.61 | > 100 | 0.68 | 0.018 | IC50, neutralization of X2088 PsV [21]: > 100 nM; IC50, neutralization of BG505 PsV [22]: 0.02 nM; IC50, neutralization of SF162 PsV [23]: > 100 nM; IC50, neutralization of 278 PsV [24]: 1.1 nM; IC50, neutralization of Du422 PsV [25]: 40 nM; IC50, neutralization of JRCSF PsV [26]: 0.049 nM; IC50, neutralization of X1632 PsV [27]: 0.12 nM; IC50, neutralization of ZM106 PsV [28]: 0.084 nM |
